Assay: soluble on expression in E. coli; label from the status in PepcDB or PDB records

Sequence	soluble on expression in E. coli
MGSDKIHHHHHHMSNQHSWALSMNQIENCSCSHGCGCQFGGFPTSKDGGCEAILGFEILKGHFNDLDLSGLKMVFAAAWPSAMHEGNGKGALFIDNSANEEQVGALATIMSGQAGGMPVEVLGTLFSEFDGPIMADIKLNRQDYTSTVTIEGIIEVEQEPHINPVTGEINEVHISFPKGGFMWNDGFAGKTKLMKINHGNMAFSYSDTFAANAVVNWPNA	not soluble
MPKNTPIIRSLLDTDLYKFTMLQVVLHQFPAAHGEYEFRCRNHPDTPLTQLKQQLETQLDLLCELRFSQDELDYLRGLRFIKSDYVDYLELFHLQRRFISVSEEGEQLAIRIKGPMVQAMFFEIFVLAIVNELYFRPLDSKAVREEGRRRLEAKLAELERFQREEAPGQRFPLLIADFGTRRRFSRDWQAHVVERLNHALPQVFRGTSNVYLARKLGITPIGTMAHEFFQAFQALGVRLRDFQKAALESWVQEYRGDLGIALTDVVGMDAFLADFDLYFAKLFDGLRHDSGDPYIWGEKAIAHYRKLRIDPATKMLTFSDGLSVDSALQLQRHFSPHIQVSFGIGTHFTNDMGLEPLQIVLKLVSCNGQPVAKLSDSPGKTMCSDETFLAYLRQVFKVPALALEHHHHHH	soluble
MAMLGDQSFAAVKRDVPVDPDRQANDYVRCVADAVTREVGGSWEVVLFRQDSPNAFALPGGKIGVHTGMLRIARNQDQLATVLAHEVAHVLSRHANERLSQQVAVQQGLNAMQALADPSSSSGKTLMGLLGLGAQYGILMPYSRTQESEADLLGLDLMARAGFDPRQSIELWNNMANSGGGQPIEFLSTHPSHATRMQDLAKRMPRALDLQRQAAAQGHRPQCDGIRAGGGLEHHHHHH	not soluble
MGSSHHHHHHSSGLVPRGSHMSVRSLPAALRACARLQPHDPAFTFMDYEQDWDGVAITLTWSQLYRRTLNVAQELSRCGSTGDRVVISAPQGLEYVVAFLGALQAGRIAVPLSVPQGGVTDERSDSVLSDSSPVAILTTSSAVDDVVQHVARRPGESPPSIIEVDLLDLDAPNGYTFKEDEYPSTAYLQYTSGSTRTPAGVVMSHQNVRVNFEQLMSGYFADTDGIPPPNSALVSWLPFYHDMGLVIGICAPILGGYPAVLTSPVSFLQRPARWMHLMASDFHAFSAAPNFAFELAARRTTDDDMAGRDLGNILTILSGSERVQAATIKRFADRFARFNLQERVIRPSYGLAEATVYVATSKPGQPPETVDFDTESLSAGHAKPCAGGGATSLISYMLPRSPIVRIVDSDTCIECPDGTVGEIWVHGDNVANGYWQKPDESERTFGGKIVTPSPGTPEGPWLRTGDSGFVTDGKMFIIGR	soluble
MKPDAHHVKQFLLRLQDDICQTLSAVDGANFVEDSWRREAGGGGRSRVLRNGGIFEQAGVNFSHVHGDAMPASATAHRPELAGRSFEAMGVSLVVHPHNPYIPTSHANVRFFIAEKPGADPVWWFGGGFDLTPYYGFEEDAVHWHRTARDLCQPFGDDVYPRYKKWCDDYFFLKHRNEQRGVGGLFFDDLNTPDFDHCFDFMQAVGNGYTRAYLPIVERRKAMVWGERERNFQLYRRGRYVEFNLVWDRGTLFGLQTGGRTESILMSMPPLVRWEYDWQPEAGSPEAALSEFIQVRDWILEHHHHHH	soluble
DGRRMVQGLLTASLLTSIGGDLEVLASRMDLQFQRPVYTGETLVCELTVVSADPHTDGGVALVGDVAVRRVNRDDNSGQADTAAP	not soluble
MIELTITNATITAGDTPLLTNASLHVGSGECVALMGESGSGKTTLAQAILGYLAPGCRWCSGSIDVDGLNPLQLAPRSLRELRKRCAYVDQDPGAALPPGHSVRSIVRSRASLSDAQMLSIFGDFGLGDIDR	not soluble
ATFTSLANQAASREDYEFHRTVLLASGGLLLSGDPLPEITPFASKTLAKLMLRQRRSQESAKFTALSLSHAFLKLTDKNDLHCLFNYANHNATEFTLTADQPVDWYDYWTGEKLNQDPCQLLLVSVDRGLNAKAIVTA	not soluble
MNMSRHDEFGGSTNKGPVQEHDVIMRGRRLLDITGVKQVESFDNEEFLLETVMGFLAIRGQNLQMKNLDVDKGVVSIKGRIFDLVYLDDHQEKAKGFFSKLFK	not soluble
MSLSELAVTEAEKGQDMIRSAVGEIKITNASLACYSWPRAQPIQNGLHTYVNVNIAITKIETDIGITGYGIGRNNPGENAIRHQFLSTMIGKDPTATAAVWAQLWSPKLYGRRGQETKALSSIDMALWDIKGKIAGMPIWRLLGGYRNRIPTYVAGGYYAKGKGLKDLQQEMANHVERGARGVKMKVGAVDIAEDVERINAVRKALGPDIKLMIDANCAYTYFDAIRLAKRVEEFDIYWFEEPVQPDDYEGFTKLSRATSIPLATGENEYTKHGFRDLIATQAISFLQPDARYMGGVTEFMKVAAMAEAHGLVICPHGDQQAHIQLLGAIPNAHLLEFYPKELNPMFGSVYKHTPDLNEDGTVTIPDVPGMATEPNEKMLERYRVAEGHHHHHH	soluble
MRILHTADWHLGKTLEGRSRLSEQADVLDELNTIVKDEQIDAIVMAGDAFDTVNPPALAEQLFYESLSALSDRGKRPIVVIAGNHDNPDRLSAASPLTHENGIHLIGYPTTEPIHIEVPSAGELLAVGALAYPSEARLNEVLSDTFDEKLLRDHYDVKIRQAFEHMTSRFRTDAVKIAASHIYVAGGNQTDSDGPIEVGGAYTVAAESLPADAAYVALGHLHRPQTIKRARTLARYSGSPLAYSFSEAGYAKSVTIVDAKPGEEATWQEVLLSSGKPLVKWKAANGLSEVYSWLDEGRDQNAWIDLEIRVADQLSLEEIHRLRKAHPGFIHIRPVFEEQNKDRERIEVKHVSIEDRFKKFYEKQTGGAVPDEEMVRLFLELASGVEEEDAK	not soluble
MLQSTLLRKSIFYSLAHRRHVASVPLKDVFCDPENPKILQFGDISMAHHRIQNGIVRTDCRKSRCLSKLFDMNIYLKMEVNQDTGSFKERGARYALQNLPEEKKKAGVYAASAGNHALALSLHGKQLGVEVNVVMPKIAPLMKINRCQDLGANILVQGEDIAESREIALRMAHDSNGTYINGYDHYDILAGAGTTGIEILEQIQMPDAILVPVGGGGLVAGVATAVKALSPTTEVIGVVSETCQAIVKSLQAGHPVYTPTRPTLADGLAVPNAGVNAFASMIGKVDRVISVPENDIAVAILRLIENEKVVCEGAGAIGIGAILSGKLNHLKGKTVVSILSGGNIDSTSLGRCIERGLAYDHRVIRLSVIIPDKPGGLSKLTGLVGELSGNVRDLYLERAFMRNDMSSQRVKMVIEVRGEEHEMQLKQKFQEVYDPSNCQFKNNRLPRL	not soluble
MLELLYTALLYLIQPLIWIRLWVRGRKAPAYRKRWGERYGFYRHPLKPGGIMLHSVSVGETLAAIPLVRALRHRYPDLPITVTTMTPTGSERVQSAFGKDVQHVYLPYDLPDALNRFLNKVDPKLVLIMETELWPNLIAALHKRKIPLVIANARLSARSAAGYAKLGKFVRRLLRRITLIAAQNEEDGARFVALGAKNNQVTVTGSLKFDISVTPQLAAKAVTLRRQWAPHRPVWIATSTHEGEESVVIAAHQALLQQFPNLLLILVPRHPERFPDAINLVRQAGLSYITRSSGEVPSTSTQVVVGDTMGELMLLYGIADLAFVGGSLVERGGHNPLEAAAHAIPVLMGPHTFNFKDICARLEQASGLITVTDATTLAKEVSSLLTDADYRSFYGRHAVEVLYQNQGALQRLLQLLEPYLPPKTHLEHHHHHH	soluble
MVKSVGCKNLSLDVKKAIVAGFEQGTPTKMLALQIQRSPSTIWKVIKKYQTEKSVALRISPGRPRVTTHRMDRNILRSAREDPHRTATDIQTIISSPNEPVPSKRTVRRRLQQAGLHGRKPVKKPFISKKNRMARVAWAKAHLRWGRQEWAKHIWSDESKFNLFGSDGNSWVRRPVGSRYSPKYQCPTVKHGGGSVMVWGCFTSTSMGPLRRIQSIMDRFQYENILETTMRPWALQNVGRGFVFQQDNDPKHTSLHVRSWFQPCRVHLLDWPSQSPDLNPIEHLWEELERRLGGIRASNADAKFNQLENAWKAIPMSVIHKLIDSMPRRCLAVIDANGYATKY	not soluble
MSTRKAVIGYYFIPTNQINNYTETDTSVVPFPVSNITPAKAKQLTHINFSFLDINSNLECAWDPATNDAKARDVVNRLTALKAHNPSLRIMFSIGGWYYSNDLGVSHANYVNAVKTPASRAKFAQSCVRIMKDYGFDGVDINWEYPQAAEVDGFIAALQEIRTLLNQQTITDGRQALPYQLTIAGAGGAFFLSRYYSKLAQIVAPLDYINLMTYDLAGPWEKVTNHQAALFGDAAGPTFYNALREANLGWSWEELTRAFPSPFSLTVDAAVQQHLMMEGVPSAKIVMGVPFYGRAFKGVSGGNGGQYSSHSTPGEDPYPSTDYWLVGCEECVRDKDPRIASYRQLEQMLQGNYGYQRLWNDKTKTPYLYHAQNGLFVTYDDAESFKYKAKYIKQQQLGGVMFWHLGQDNRNGDLLAALDRYFNAADYDDSQLDMGTGLRYTGVGPGNLPIMTAPAYVPGTTYAQGALVSYQGYVWQTKWGYITSAPGSDSAWLKVGRVA	soluble
MAKEKKRGFFSWLGFGQKEQTPEKETEVQNEQPVVEEIVQAQEPVKASEQAVEEQPQAHTEAEAETFAADVVEVTEQVAESEKAQPEAEVVAQPEPVVEETPEPVAIEREELPLPEDVNAEAVSPEEWQAEAETVEIVEAAEEEAAKEEITDEELETALAAEAAEEAVMVVPPAEEEQPVEEIAQEQEKPTKEGFFARLKRSLLKTKENLGSGFISLFRGKKIDDDLFEELEEQLLIADVGVETTRKIITNLTEGASRKQLRDAEALYGLLKEEMGEILAKVDEPLNVEGKAPFVILMVGVNGVGKTTTIGKLARQFEQQGKSVMLAAGDTFRAAAVEQLQVWGQRNNIPVIAQHTGADSASVIFDAIQAAKARNIDVLIADTAGRLQNKSHLMEELKKIVRVMKKLDVEAPHEVMLTIDASTGQNAVSQAKLFHEAVGLTGITLTKLDGTAKGGVIFSVADQFGIPIRYIGVGERIEDLRPFKADDFIEALFARED	soluble
MGSDKIHHHHHHMRTVYIIGSKGIPAKYGGFETFVEKLTEYQKDKSINYFVACTRENSAKSGITGEVFEHNGATCFNIDVPNIGSAKAILYDIMALKKSIEIAKDRNDTSPIFYILACRIGPFIYLFKKQIESIGGQLFVNPDGHEWLREKWSYPVRQYWKFSESLMLKYADLLICDSKNIEKYIHEDYRKYAPETSYIAYGTDLDKSRLSPTDSVVREWYKEKEISENDYYLVVGRFVPENNYEVMIREFMKSYSRKDFVLITNVEHNSFYEKLKKETGFDKDKRIKFVGTVYNQELLKYIRENAFAYFHGHEVGGTNPSLLEALSSTKLNLLLDVGFNREVGEEGAKYWNKDNLHRVIDSCEQLSQEQINDMDSLSTKQVKERFSWDFIVDEYEKLFKG	not soluble
MSKLAEFREAERKLQEQLALLEKLKSDSSLKQELEFKDKLQALMDKYGMTLHNIIAILDPKAPVTVSAAPQRRARALKVYKNPNNGEVVETKGGNHKVLKAWKEQYGSETVESWLQR	not soluble
MANPLYQKHIISINDLSRDDLNLVLATAAKLKANPQPELLKHKVIASCFFEASTRTRLSFETSMHRLGASVVGFSDSANTSLGKKGETLADTISVISTYVDAIVMRHPQEGAARLATEFSGNVPVLNAGDGSNQHPTQTLLDLFTIQETQGRLDNLHVAMVGDLKYGRTVHSLTQALAKFDGNRFYFIAPDALAMPQYILDMLDEKGIAWSLHSSIEEVMAEVDILYMTRVQKERLDPSEYANVKAQFVLRASDLHNAKANMKVLHPLPRVDEIATDVDKTPHAWYFQQAGNGIFARQALLALVLNRDLVL	soluble
ARSAYSYIREAWKRPKEGQIAELMWHRMQEWRNEPAVVRIERPTRLDRARSLGYKAKQGIIVVRVAIRKGSSRRTRFNKGRRSKRMMVNRITRKKNIQRIAEERANRKFPNLRVLNSYSVGEDGRHKWHEVILIDPDHPAIKSDDQLSWISRTRHRLRTFRGLTSAGRRCRGLRGQGKGSEKVRPSLRVNGAKA	soluble

Source: the DeepSol protein solubility set
